Paper PMC5391116 (PLoS ONE, 2017)

Target: Human MET ECD (extracellular domain) containing a FLIS tag (Homo sapiens, UniProt P08581)
Assay: cell-based or functional assay

Human MET ECD (extracellular domain) containing a FLIS tag, sequence (P08581 25-932): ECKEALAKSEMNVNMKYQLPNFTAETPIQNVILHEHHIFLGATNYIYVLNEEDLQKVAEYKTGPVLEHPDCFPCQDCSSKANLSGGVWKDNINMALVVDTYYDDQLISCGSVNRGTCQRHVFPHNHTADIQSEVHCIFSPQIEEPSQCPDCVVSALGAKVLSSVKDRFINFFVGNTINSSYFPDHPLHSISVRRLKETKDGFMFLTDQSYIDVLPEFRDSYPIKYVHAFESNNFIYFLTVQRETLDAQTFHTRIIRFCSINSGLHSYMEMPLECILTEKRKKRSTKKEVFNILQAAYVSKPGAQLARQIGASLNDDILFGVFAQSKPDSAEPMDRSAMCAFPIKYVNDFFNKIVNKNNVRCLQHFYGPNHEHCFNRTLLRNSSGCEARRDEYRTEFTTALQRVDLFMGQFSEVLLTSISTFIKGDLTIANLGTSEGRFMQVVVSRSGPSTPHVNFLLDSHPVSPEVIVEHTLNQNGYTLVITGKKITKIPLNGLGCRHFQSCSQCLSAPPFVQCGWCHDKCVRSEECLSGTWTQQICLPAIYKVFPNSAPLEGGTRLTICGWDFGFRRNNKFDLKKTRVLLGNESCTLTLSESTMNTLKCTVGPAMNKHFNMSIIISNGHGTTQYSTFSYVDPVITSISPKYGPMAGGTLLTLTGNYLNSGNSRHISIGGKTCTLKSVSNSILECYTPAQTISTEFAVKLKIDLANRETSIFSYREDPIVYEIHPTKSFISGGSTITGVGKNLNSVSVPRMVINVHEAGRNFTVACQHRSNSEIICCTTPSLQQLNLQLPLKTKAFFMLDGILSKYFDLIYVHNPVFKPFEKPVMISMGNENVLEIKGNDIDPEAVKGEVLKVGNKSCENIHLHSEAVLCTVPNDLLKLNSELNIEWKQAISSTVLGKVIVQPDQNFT

B1: IgG1 MET antibody (variable regions from LY2875358 on human IgG1 constant regions) (antibody, V domains shown)
VH: QVQLVQSGAEVKKPGASVKVSCKASGYTFTDYYMHWVRQAPGQGLEWMGRVNPNRRGTTYNQKFEGRVTMTTDTSTSTAYMELRSLRSDDTAVYYCARANWLDYWGQGTTVTVSS
VL: DIQMTQSPSSLSASVGDRVTITCSVSSSVSSIYLHWYQQKPGKAPKLLIYSTSNLASGVPSRFSGSGSGTDFTLTISSLQPEDFATYYCQVYSGYPLTFGGGTKVEIK
  phospho-AKT activity levels in Caki-1 cells (MSD ELISA), various doses of antibody for 15 minutes: > 8 fold
